This note sets out measurements from patent US20120094909A1 (Bristol-Myers Squibb, published 2012).

To fix the notation:
B1: 1459D05 (designed binder)
chain: MGVSDVPRDLEVVAATPTSLLISWPPPSHGYGYYRITYGETGGNSPVQEFTVPPGKGTATISGLKPGVDYTITVYAVEYPYKHSGYYHRPISINYRTEIDKPSQHHHHHH
notes: also called ATI000891; ATI-891
B2: 2382F05 (designed binder)
chain: MGVSDVPRDLEVVAATPTSLLISWDAPAEAGKHYGYYRITYGETGGNSPVQEFTVPVSKGTATISGLKPGVDYTITVYAVEFDFPGAGYYHRPISINYRTEIDKPSQHHHHHH
notes: Anti-PCSK9 Adnectin, His6-tagged
B3: 2451C06 (designed binder)
chain: MGVSDVPRDLEVVAATPTSLLISWDAPAGAASYGYYRITYGETGGNSPVQEFTVPVSKGTATISGLKPGVDYTITVYAVEFPFPGAGYYHRPISINYRTEIDKPSQHHHHHH
notes: as for B2
B4: 2381H09 (designed binder)
chain: MGVSDVPRDLEVVAATPTSLLISWDAPAGGGYGYYRITYGETGGNSPVQEFTVPVSKGTATISGLKPGVDYTITVYAVEFDFVGAGYYHRPISINYRTEIDKPSQHHHHHH
notes: as for B2
B5: 2382C05 (designed binder)
chain: B4 chain with G29D, G31A, F80Y, D81S, V83P
notes: as for B2
B6: 2382D03 (designed binder)
chain: B4 chain with G29D, G30E, G31A, V83P
notes: as for B2
B7: 2382E03 (designed binder)
chain: B4 chain with G30D, V83P
notes: as for B2
B8: 2382H03 (designed binder)
chain: B4 chain with G29E, G31A, F80Y, D81P, F82Y, V83P, G84F
notes: as for B2
B9: 2382E05 (designed binder)
chain: B4 chain with G29E, V83P
notes: as for B2
B10: 2382G04 (designed binder)
chain: B4 chain with V55S, V83P
notes: as for B2
B11: 2011H05 (designed binder)
chain: B1 chain with P25V, P27S, G30A, P54V, K56V, P80A, Y81F, K82E, H83G, S84A
notes: also called ATI001091
B12: 1923B02 (designed binder)
chain: B1 chain with P25T, S28P, H29K, P54V, K56E, P80T, K82N, H83G, S84A
notes: as for B2
B13: 1784F03 (designed binder)
chain: B1 chain with P25R, S28I, G30A, P54I, G55V, K56E, P80T, Y81F
notes: as for B2
B14: 1813E02 (designed binder)
chain: B1 chain with P25S, S28A, H29N, P54V, K56R, P80T, H83G
notes: as for B2
B15: 1922G04 (designed binder)
chain: B1 chain with P25R, G30A, P54I, Y81W, H83G
notes: also called ATI001057; ATI-1057
B16: 1923B02 (designed binder)
chain: B1 chain with P25T, S28P, H29K, P54V, K56E, P80T, K82N, H83G, S84A

Numbering of substitutions follows the chain as printed. Values joined by “and” are separate entries in the source; they are usually repeats but may differ in a detail not shown here. Equal values may be shown once.

The target of one experiment is T1, human PCSK9 (proprotein convertase subtilisin kexin type 9) (human, UniProt Q8NBP7 31-692).
T1 construct: Directly immobilized (SPR ProteOn), biotinylated (BLI), or in solution, depending on the assay; also called hPCSK9
Nature of the experiment: SPR ProteOn, PCSK9 immobilized, 25 C. On the procedure:
(§1) The binding characteristics were characterized by Surface Plasmon Resonance (SPR). […] This allowed kinetic determination in the absence of regeneration. […] Evaluation of the kinetic parameters was performed using the Langmuir interaction model and constant parameter fitting with the ProteOn Manager software.
On to B1, for which the Kd came to 1.58 nM, the koff was 0.00018 s⁻¹ and the kon was found to be 113000 M⁻¹ s⁻¹.

For the next experiment, the target named is T1, human PCSK9 (proprotein convertase …). Nature of the experiment: FRET, competitor ATI001125. From the text:
(§2) Table 11 summarizes the overall data from these three FRET assays.
B2 yielded an IC50 of 0.9 nM.
As to B3, the IC50 turned out to be 0.4 nM.
Still for that read-out and setting: as for B4, the figure is 0.5 nM; as for B5, 0.9 nM.
On the same count and under the same terms, as for B6, the figure is 0.6 nM; as for B7, 0.5 nM; as for B8, 0.3 nM.
Molecule B9 returned an IC50 of 0.4 nM.
On to B10, for which the IC50 was 0.5 nM.

For another experiment the target is unchanged. Nature of the experiment: BLI Octet Red, 37 C. On the procedure:
(§3) Tips were then immersed into a buffer-only well for observation of Adnectin dissociation. Experiments were performed in a temperature controlled environment at either 25 or 37° C., and the oscillation speed was set at 1500 rpm.
(§4) Binding interaction analysis was performed using proprietary software from Fortebio (Fortebio Data Analysis Software version 6.3.0.36). Global fits were performed for all samples, using a 1:1 binding model. The nature of these global fits constrained all values of concentration to a single pair of association and dissociation rates that were themselves constrained to each other. Affinities (KD), association and dissociation rates were averaged over the various loading levels used in the analysis.
With B1, the Kd stood at 14.4 nM.
B2 yielded a Kd of 4.54 nM.
B3: the Kd is 1.27 nM.
As for B4, binding was characterised by a dissociation constant (Kd) of 3.23 nM.
B5: the Kd came to 2.49 nM.
Molecule B6 displayed a Kd of 1.53 nM.
Same read-out and setting: under B7 stands 2.94 nM; under B8, 0.677 nM.
The same measure, in the same setting: as for B9, the figure is 0.604 nM.
On the same count and under the same terms, as for B10, the figure is 1.11 nM.

The next experiment deals with T2, human PCSK9 (proprotein convertase subtilisin kexin type 9) (human, UniProt Q8NBP7 31-692). Description: cell-based or functional assay.
Turning to B11, the “EC50 (nM), PCSK9-induced LDLR depletion from HepG2 cell surface” value was determined as 8.85 nM and the “percentage of PCSK9 inhibition at 75 nM” value was 177%.

In a further experiment the target is T1, human PCSK9 (proprotein convertase …). Description: SPR ProteOn, 25 C. On the procedure:
as §1
Take B12: the Kd worked out at 0.17 nM.
Molecule B1 registered a Kd of 1.58 nM.

For another experiment the target is unchanged. Nature of the experiment: FRET direct binding, anti-his6 antibody.
Excerpt: as §2
B12 gave an EC50 of 3.2 nM.
Consider B13, for which a half-maximal response (EC50) required 1.6 nM.
On the same count and under the same terms, under B14 stands 2.3 nM; under B1, 3.9 nM; under B2, 3.8 nM.
The same measure, in the same setting: under B3 stands 5.5 nM; under B4, 4.1 nM; under B5, 3.4 nM.
In turn, B6 came in with an EC50 of 3.3 nM.
The same measure, in the same setting: as for B7, the figure is 3.7 nM.
Regarding B8, it took 3.8 nM to reach a half-maximal effect (EC50).
The same measure, in the same setting: under B9 stands 3.8 nM; under B10, 3.6 nM.

Another experiment has the same target. Nature of the experiment: FRET, competitor ATI000972.
Excerpt: as §2
For the molecule B12, the IC50 is 3.2 nM.
In turn, B13 showed an IC50 of 1.9 nM.
As for B14, the IC50 worked out at 2.4 nM.
For the molecule B1, the IC50 was determined as 14 nM.

The target of the next experiment is T2, human PCSK9 (proprotein convertase …). Nature of the experiment: PCSK9:EGFA FRET, competitor EGFA peptide.
Molecule B15 yielded an EC50 of 1.2 nM.
Same read-out and setting: under B11 stands 2.7 nM.
In turn, B16 returned an EC50 of 2.3 nM.

Another experiment concerns the target T1, human PCSK9 (proprotein convertase …). Description: FRET, competitor EGFA peptide.
Excerpt: as §2
With B12, the EC50 was found to be 2.3 nM and the IC50 is 2.3 nM.
Consider B13, for which the EC50 was determined as 2.01 nM and the IC50 was determined as 2 nM.
For the molecule B14, the EC50 stood at 2.7 nM and the IC50 amounted to 1.3 nM.
For B1 the same measures were 5.8 nM and 4 nM.
The molecule B2 returned an EC50 of 2.4 nM and a concentration for half-maximal inhibition (IC50) of 2.4 nM.
As to B3, the EC50 is 1.2 nM and the IC50 came out at 1.2 nM.
Take B4: the midpoint of the response, the EC50, lay at 3.4 nM and the IC50 was determined as 3.4 nM.
Consider B5, for which the EC50 was found to be 4 nM and the IC50 was found to be 4 nM.
Turning to B6, the midpoint of the response, the EC50, lay at 3.3 nM and the IC50 came to 3.3 nM.
As to B7, a half-maximal response (EC50) required 2.4 nM and the IC50 came out at 2.4 nM.
Molecule B8 showed an EC50 of 3.4 nM and an IC50 of 3.4 nM.
On to B9, for which the response was half-maximal at 2.8 nM (EC50) and the IC50 came to 2.8 nM.
B10: a half-maximal response (EC50) required 2.9 nM and the IC50 stood at 2.9 nM.

A further experiment addresses cynomolgus monkey PCSK9 (cynomolgus monkey, UniProt A0A7N9D9N8 150-747). Description: FRET, competitor EGFA peptide.
Excerpt: as §2
In the case of B12, a half-maximal response (EC50) required 53.5 nM.
B13: the EC50 was found to be 106 nM and the IC50 stood at 106 nM.
On to B14, for which the EC50 came out at 118 nM and the IC50 turned out to be 118 nM.
B1 showed an EC50 of over 1000 nM and an IC50 of 2300 nM.
For the molecule B2, the concentration for a half-maximal effect (EC50) amounted to 14.6 nM.
B3 showed an EC50 of 24.7 nM.
Same read-out and setting: under B4 stands 20.2 nM.
On the same count and under the same terms, as for B5, the figure is 27.2 nM; as for B6, 11.8 nM.
Same read-out and setting: under B7 stands 10.8 nM; under B8, 19.8 nM.
For the molecule B9, the EC50 is 12.6 nM.
The same measure, in the same setting: as for B10, the figure is 20.1 nM.

A further experiment deals with T1, human PCSK9 (proprotein convertase …). Nature of the experiment: BLI, biotinylated hPCSK9 on sensor tips. On the procedure: as §3, §4
B1: the kon is 149000 M⁻¹ s⁻¹ and 108000 M⁻¹ s⁻¹.
B2: the Kd is 4.54 nM, the koff stood at 0.00109 s⁻¹ and the kon stood at 244000 M⁻¹ s⁻¹.
In the same order, the values of B3 are 1.27 nM, 0.000435 s⁻¹ and 347000 M⁻¹ s⁻¹.
In the same order, the values of B4 are 3.23 nM, 0.00046 s⁻¹ and 136000 M⁻¹ s⁻¹.
For B5, binding was put at a Kd of 2.49 nM, the koff came out at 0.000879 s⁻¹ and the kon was 368000 M⁻¹ s⁻¹.
In the same order, the values of B6 are 1.53 nM, 0.000663 s⁻¹ and 354000 M⁻¹ s⁻¹.
For B7 the same measures were 2.94 nM, 0.000596 s⁻¹ and 220000 M⁻¹ s⁻¹.
Molecule B8 returned a Kd of 0.677 nM, a koff of 0.000557 s⁻¹ and a kon of 471000 M⁻¹ s⁻¹.
For B9 the same measures were 0.604 nM, 0.00025 s⁻¹ and 436000 M⁻¹ s⁻¹.
As for B10, the Kd was 1.11 nM, the koff amounted to 0.000464 s⁻¹ and the kon was found to be 419000 M⁻¹ s⁻¹.

The target is the same in a further experiment. Description: cell-based or functional assay.
For B12, the “LDLR Depletion EC50” value was found to be 23 nM.
On the same count and under the same terms, under B13 stands 26 nM.
The same measure, in the same setting: as for B14, the figure is 16 nM; as for B1, over 200 nM.

Another experiment addresses T2, human PCSK9 (proprotein convertase …). Description: cell-based or functional assay. The source holds these as a separate data set.
Consider B15, for which the “LDLR Depletion (% inhibition at 75 nM)” value amounted to 105% and the “LDLR Depletion EC50” value worked out at 10 nM.
As for B11, the “LDLR Depletion (% inhibition at 75 nM)” value worked out at 198% and the “LDLR Depletion EC50” value is 12 nM.
For B16, the “LDLR Depletion (% inhibition at 75 nM)” value is 178% and the “LDLR Depletion EC50” value came out at 23 nM.

The target is the same in another experiment. Description: SPR (ProteOn), 25 C.
In turn, B15 yielded a Kd of 0.09 nM.
On the same count and under the same terms, under B11 stands 0.08 nM; under B16, 0.173 nM.
